Experiment [1] has as its target GST-ErpB (Borrelia burgdorferi strain B31). Kind of experiment: SPR.
The target in experiment [2] is GST-ErpQ (Borrelia burgdorferi strain B31). Kind of experiment: SPR.

B1: C1s enzyme (activated form of human C1s) (enzyme)
chain 1: EPTMYGEILSPNYPQAYPSEVEKSWDIEVPEGYGIHLYFTHLDIELSENCAYDSVQIISGDTEEGRLCGQRSSNNPHSPIVEEFQVPYNKLQVIFKSDFSNEERFTGFAAYYVATDINECTDFVDVPCSHFCNNFIGGYFCSCPPEYFLHDDMKNCGVNCSGDVFTALIGEIASPNYPKPYPENSRCEYQIRLEKGFQVVVTLRREDFDVEAADSAGNCLDSLVFVAGDRQFGPYCGHGFPGPLNIETKSNALDIIFQTDLTGQKKGWKLRYHGDPMPCPKEDTPNSVWEPAKAKYVFRDVVQITCLDGFEVVEGRVGATSFYSTCQSNGKWSNSKLKCQPVDCGIPESIENGKVEDPESTLFGSVIRYTCEEPYYYMENGGGGEYHCAGNGSWVNEVLGPELPKCVPVCGVPREPFEEKQR
chain 2: IIGGSDADIKNFPWQVFFDNPWAGGALINEYWVLTAAHVVEGNREPTMYVGSTSVQTSRLAKSKMLTPEHVFIHPGWKLLEVPEGRTNFDNDIALVRLKDPVKMGPTVSPICLPGTSSDYNLMDGDLGLISGWGRTEKRDRAVRLKAARLPVAPLRKCKEVKVEKPTADAEAYVFTPNMICAGGEKGMDSCKGDSGGAFAVQDPNDKTKFYAAGLVSWGPQCGTYGLYTRVKNYVDWIMKTMQENSTPRED
Take B1: the Kd (usually the free concentration of one partner at which half of the binding sites on the other are occupied at equilibrium, for simple one-to-one binding) in experiment [1] was determined as 3.9 nM; in experiment [2], 4.5 nM.

B2: C1r enzyme (activated form of human C1r) (enzyme)
chain 1: SIPIPQKLFGEVTSPLFPKPYPNNFETTTVITVPTGYRVKLVFQQFDLEPSEGCFYDYVKISADKKSLGRFCGQLGSPLGNPPGKKEFMSQGNKMLLTFHTDFSNEENGTIMFYKGFLAYYQAVDLDECASRSKSGEEDPQPQCQHLCHNYVGGYFCSCRPGYELQEDTHSCQAECSSELYTEASGYISSLEYPRSYPPDLRCNYSIRVERGLTLHLKFLEPFDIDDHQQVHCPYDQLQIYANGKNIGEFCGKQRPPDLDTSSNAVDLLFFTDESGDSRGWKLRYTTEIIKCPQPKTLDEFTIIQNLQPQYQFRDYFIATCKQGYQLIEGNQVLHSFTAVCQDDGTWHRAMPRCKIKDCGQPRNLPNGDFRYTTTMGVNTYKARIQYYCHEPYYKMQTRAGSRESEQGVYTCTAQGIWKNEQKGEKIPRCLPVCGKPVNPVEQRQR
chain 2: IIGGQKAKMGNFPWQVFTNIHGRGGGALLGDRWILTAAHTLYPKEHEAQSNASLDVFLGHTNVEELMKLGNHPIRRVSVHPDYRQDESYNFEGDIALLELENSVTLGPNLLPICLPDNDTFYDLGLMGYVSGFGVMEEKIAHDLRFVRLPVANPQACENWLRGKNRMDVFSQNMFCAGHPSLKQDACQGDSGGVFAVRDPNTDRWVATGIVSWGIGCSRGYGFYTKVLNYVDWIKKEMEEED
With B2, the equilibrium dissociation constant (Kd) in experiment [1] came to 100 nM; in experiment [2], 97 nM.
